The source of these data is PMC4027156.

Where a chain is given by its changes, count along the chain named.

What all share (settings): BLI in buffer A (5 mM HEPES pH 7.5, 10 mM NaCl), 2.5-10 uM protein; CD with 7.5 or 15 uM ds-(dCdG)6, protein/DNA 0-8, buffer not shown in material; temperature …
Series [1] deals with yabZαE3L (yaba-like disease virus). As to the kind of experiment: BLI. On the technique in general: In BLI a coated tip is dipped into the sample, and binding shifts an interference pattern.
Series [2] has as its target T1, caZαPKZ K56A/P57A K56A;P57A (Carassius auratus) (UniProt Q7T2M9).
T1 sequence: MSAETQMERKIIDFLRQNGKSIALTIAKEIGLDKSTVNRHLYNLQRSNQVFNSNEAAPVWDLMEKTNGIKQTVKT
As to the kind of experiment: CD B-to-Z transition.

The target of series [3] is T2, caZαPKZ R39A/K56A R39A;K56A (Carassius auratus) (UniProt Q7T2M9).
T2 sequence: T1 sequence with R39A, A57P
As to the kind of experiment: CD B-to-Z transition.

In series [4] the target is T3, caZαPKZ S35A/K56A/P57A S35A;K56A;P57A (Carassius auratus) (UniProt Q7T2M9).
T3 sequence: T1 sequence with S35A
As to the kind of experiment: CD B-to-Z transition.

In the case of “ATTATATCGCGCGCGCGCGCGCGCGCGCG / CGCGCGCGCGCGCGCGCGCG [biotin-ATTATAT(CG)10 duplex]”, the Kd (commonly a measure of binding affinity in units of concentration) in series [1] was 87.2 nM.
Consider “CGCGCGCGCGCG (double strand) [ds-(dCdG)6]”, for which the values for the binding signal (% of WT activity) in series [2], in series [3] and in series [4] were 50, 80 and 50, respectively.
